The text below walks through data of publication PMC10341166, “The Src-Family Kinases SRC and BLK Contribute to the CLDN6-Adhesion Signaling” (Cells, 2023).

Experiment [1] deals with T1, recGST-SRC (full-length recombinant SRC, Sf9) (mouse, UniProt P05480 1-535).
T1 construct: proto-oncogene tyrosine-protein kinase SRC, mouse, full-length; Src-FLAG subcloned into plEx/Bac-4; also called recSRC; source: Sf9 insect cells, transfected, purified (GST-tagged protein purification kit)
Nature of the experiment: pull-down; GST pull-down: 10 µg recGST, recBLK-FLAG or recSRC bound to Glutathione-Superflow Resin, incubated with 3 µg recCLDN6C for 1 h at room temperature; washed five times in 140 mM NaCl, 10 mM Na2HPO4, 1.8 mM KH2PO4, pH 7.5; immunoblot. The following applies: both partners purified. (In general: In western blotting, separated proteins are transferred to a membrane and probed.)

The target of experiment [2] is T2, recGST-BLK (full-length recombinant BLK, Sf9) (mouse, UniProt P16277 1-499).
T2 construct: tyrosine-protein kinase BLK, mouse, full-length; Blk-FLAG subcloned into plEx/Bac-4; also called recBLK; recBLK-FLAG; source: Sf9 insect cells, transfected, purified (GST-tagged protein purification kit)
T2 sequence (P16277 whole entry): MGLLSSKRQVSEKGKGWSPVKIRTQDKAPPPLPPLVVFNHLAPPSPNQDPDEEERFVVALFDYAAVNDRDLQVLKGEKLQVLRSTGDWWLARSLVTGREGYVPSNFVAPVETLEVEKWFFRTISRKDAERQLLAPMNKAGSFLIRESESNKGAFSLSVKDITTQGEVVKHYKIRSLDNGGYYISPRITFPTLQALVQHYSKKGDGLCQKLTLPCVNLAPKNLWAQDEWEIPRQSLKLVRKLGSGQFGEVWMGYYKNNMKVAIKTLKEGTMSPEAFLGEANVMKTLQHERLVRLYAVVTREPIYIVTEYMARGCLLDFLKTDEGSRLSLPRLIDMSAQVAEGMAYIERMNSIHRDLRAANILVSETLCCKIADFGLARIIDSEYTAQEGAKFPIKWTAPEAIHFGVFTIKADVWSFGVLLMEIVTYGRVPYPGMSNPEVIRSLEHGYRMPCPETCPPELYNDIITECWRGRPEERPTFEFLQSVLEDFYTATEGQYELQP
The description is as above. To be noted: both partners purified.

B1: recCLDN6C (recombinant C-terminal cytoplasmic domain of CLDN6, C185-V219) (domain or fragment, mouse, UniProt Q9Z262 185-219, looked up)
chain: CSSGGTQGPRHYMACYSTSVPHSRGPSEYPTKNYV
notes: claudin-6 (CLDN6), mouse, C-terminus C185-V219; source: recombinant, from plEx/Bac-4
Turning to B1, the binding result in experiment [1] and in experiment [2] was “binds” in each case.
